Measured values published in patent US9234893B2, “Marker comprising anti-CK8/18 complex autoantibody and its use for diagnosing cancer” (Korea Research Institute of Bioscience and Biotechnology, priority 2011, dated 2016).
“Also recorded” adds a separate entry of the source. Values belong to the molecule of their own block, whether it stands above or below them.

How the values were obtained:
TAB-K94 antibody = test: ELISA with selected phage as coating antigen and TAB-K94 antibody as primary antibody; format: binding, mouse; conditions: 100 ng/100 μl TAB-K94 antibody, absorbance at 450 nm
Experimental: In order to examine the reactivity of the selected TAB-K94 antibody-specific phages against TAB-K94 antibody, ELISA was performed using the phage as a coating antigen and TAB-K94 antibody as a primary antibody. The detailed method is as follows:
[…] was diluted in 100 μl of a coating solution (0.1 M sodium bicarbonate buffer, pH 8.6) and added to each well of 96-well Maxisorp ELISA plate. For antigen coating, the phage-added plate was stored at 4° C. for 16 hours or longer. After phage coating, 300 μl of skim milk solution (5% (w/v) skim milk/TBST) was added, and reacted at room temperature for 1 hour to block the remaining sites after antigen coating. After blocking, the plate was washed with TBST (TBS containing 0.1% Tween-20) twice, and 100 ng/100 μl of TAB-K94 antibody was added thereto, and reacted at room temperature for 90 minutes. […] The secondary antibody was also reacted at room temperature for 90 minutes, and the plate was washed with TBST six times. Color development was performed using a TMB solution (Pierce) as a substrate for HRP. Absorbance was measured at 450 nm to quantify the antigen-antibody reaction.

Chang liver cells = test: Flow cytometry after intracellular staining of cell lines with TAB-K94 antibody; format: cell-based; conditions: normal cell line
Experimental: (§1) The reactivity of autoantibodies against cancer cells was examined by flow cytometric analysis of cancer cell line after intracellular staining following the fixation and permeabilization. The method is described in detail as follows. A liver cancer cell line, HepG2 or Hepa1c1c7 at 70-80% confluency was treated with trypsin, detached from the cell culture plate, and washed with PBS. 100 μl of Cytofix/Cytoperm solution (BD) per 2×10^5 cells was added thereto, and the cells were incubated at 4° C. for 20 minutes for fixation and permeabilization. After incubation, 1 ml of Cytowash/Cytoperm solution (BD) was added and mixed well. Then the mixture was centrifuged at 1700 rpm for 5 minutes and the cell pellet was washed. 50 μl of a primary antibody solution (B cell hybridoma cell culture medium or purified primary antibody solution) was added to the washed sample, and the incubation was performed at 4° C. for 40 minutes. After incubation, the cells were washed three times, and treated with anti-mouse Igs-RPE (DaKo) at 4° C. for 40 minutes. Then, the cells were washed an additional three times, and the cell pellet was resuspended in 300 μl of PBS, followed by analysis using a FACSCaliber (BD). Mean values of fluorescence corresponding to antibody reactions were obtained and compared. 50 μl of mouse antibody free DMEM medium was added to the control group showing no antibody reaction.
(§2) The reactivity of TAB-K94 autoantibodies against various cancer cell lines was examined by flow cytometric analysis after intracellular staining of various cancer cell lines in the same manner as in Example 1 (FIG. 3A).

HT22 neuronal cells = test: as above; format: cell-based; conditions: normal cell line
Experimental: as §1, §2

[1] = test system: breast cancer cell line MCF-7; test: as above; format: cell-based
Experimental: as §1, §2

[2] = test system: liver cancer cell line HepG2; test: as above; format: cell-based
Experimental: as §1, §2

[3] = test system: human breast cancer tissues; test: Immunohistostaining of human cancer tissues using TAB-K94 antibody; conditions: in particular invasive front
Description: (§3) Based on the reactivity against cancer cells, expression of TAB-K94 antibody-reactive antigen was examined by immunohistostaining of human liver cancer tissues and breast cancer tissues using TAB-K94 antibodies.

[4] = test system: human liver cancer tissues; test: as above; conditions: liver cancer tissues (data not shown)
Description: as §3

[5] = test system: breast cancer cell line MCF-7; test: Western blotting of cell lysate and serum-free cell culture medium with TAB-K94 antibody; format: binding; conditions: MCF-7 cell lysate and cell culture medium, 50 μg protein
Experimental: Expression of TAB-K94 antibody-specific antigen proteins was examined in various cancer cell lines by Western blotting (FIG. 5A). The detailed method is as follows. The cells to be analyzed were collected and dissolved in PBS containing RIPA buffer (0.1% (w/v) SDS, 0.1% (w/v) sodium deoxycholate, 1.0% (v/v) NP40, protease inhibitor cocktail (Roche)) to be used as protein analysis samples. Protein quantification was performed by Bradford assay. Each 50 μg of the prepared protein samples was run on 10% reduced SDS-PAGE, and transferred onto a PVDF membrane. […] As a result, the TAB-K94 antibody-specific antigens were found in the liver cancer cell lines including Hep3B, PLC/PRF/5, and SK-Hep1 as a band having a molecular weight of 45 kDa.
For induction of antibodies in the individual, a specific protein should be released into the blood. That is, extracellular release of proteins expressed within the cells supports the induction of autoantibodies. Therefore, the presence of antigens was examined in the cell culture medium of cell lines expressing TAB-K94 antibody-specific antigens by Western blotting. Each 10 ml of serum-free cell culture medium was collected, and concentrated, and each 50 μg of the quantified protein was run on 10% reduced SDS-PAGE. Western blotting was performed in the same manner as above.

[6] = test system: MCF-7 or HT29 cells having the suppressed CK8 or CK18 expression; test: Flow cytometry of cells with siRNA-suppressed CK8 or CK18 expression; format: cell-based; conditions: 72 hours after siRNA treatment
Experimental: As siRNAs for the suppression of CK8 and CK18 expression, siRNAs (CK8 Sense: 5′-CCG CAG UUA CGG UCA ACC A(dTdT)-3′ (SEQ ID NO. 23), Antisense: 5′-UGG UUG ACC GUA ACU GCG G(dTdT)-3′ (SEQ ID NO. 24), CK18 Sense: 5′-CUC ACA GAG CUG AGA CGU A(dTdT)-3′ (SEQ ID NO. 25), Antisense: 5′-UAC GUC UCA GCU CUG UGA C(dTdT)-3′ (SEQ ID NO. 26)) provided by Bioneer were used, and injected into MCF-7 or HT29 cells using Lipofectamine 2000 (Invitrogen). 72 hours after siRNA treatment, the cells were collected to extract total RNA, and 5 μg of RNA was used as a template to synthesize cDNA. The synthesized cDNA was used as a template to perform polymerase chain reaction using primers having specificity to CK8 and CK18. The resulting product was analyzed on a 1% agarose gel.
The cells showing the suppressed CK8 and CK18 expression by siRNA in RT-PCR were subjected to flow cytometry in the same manner as in Examples 1 and 3, in order to examine their TAB-K94 antibody reaction. […] However, the previous studies reported that […] form a complex to exert intracellular function. Therefore, it can be assumed that variation in the expression of one of the two proteins affects that of the other protein, and this assumption was examined by Western blotting. After treatment of siRNA for CK8 or CK18, Western blotting was performed using specific antibody to each.

CK18 [7] = target: T1, CK18 (Homo sapiens, UniProt P05783); test: Western blotting of recombinant proteins with TAB-K94 antibody; format: binding; conditions: CK18 run alone
T1 construct: made in house; host or cells: E. coli BL21 (DE3)
T1 sequence (P05783 1-430): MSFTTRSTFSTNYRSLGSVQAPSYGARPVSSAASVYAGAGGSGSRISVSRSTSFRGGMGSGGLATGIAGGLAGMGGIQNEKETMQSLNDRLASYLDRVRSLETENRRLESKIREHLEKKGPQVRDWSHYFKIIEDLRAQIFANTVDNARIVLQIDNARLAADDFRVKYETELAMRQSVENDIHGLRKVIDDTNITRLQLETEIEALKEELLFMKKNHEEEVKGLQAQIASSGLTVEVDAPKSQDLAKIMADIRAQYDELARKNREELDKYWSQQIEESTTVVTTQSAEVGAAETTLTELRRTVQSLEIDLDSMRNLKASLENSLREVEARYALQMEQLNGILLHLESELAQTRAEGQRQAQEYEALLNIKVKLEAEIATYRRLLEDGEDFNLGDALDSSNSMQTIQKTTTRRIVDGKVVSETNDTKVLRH
Description: (§4) ID NO. 33), CK18 [NT] ID NO. 34), [NT] ID NO.

CK8 [8] = target: T2, CK8 (Homo sapiens, UniProt P05787); test: as above; format: binding; conditions: CK8 run alone
T2 construct: made in house; host or cells: E. coli BL21 (DE3)
T2 sequence (P05787 1-483): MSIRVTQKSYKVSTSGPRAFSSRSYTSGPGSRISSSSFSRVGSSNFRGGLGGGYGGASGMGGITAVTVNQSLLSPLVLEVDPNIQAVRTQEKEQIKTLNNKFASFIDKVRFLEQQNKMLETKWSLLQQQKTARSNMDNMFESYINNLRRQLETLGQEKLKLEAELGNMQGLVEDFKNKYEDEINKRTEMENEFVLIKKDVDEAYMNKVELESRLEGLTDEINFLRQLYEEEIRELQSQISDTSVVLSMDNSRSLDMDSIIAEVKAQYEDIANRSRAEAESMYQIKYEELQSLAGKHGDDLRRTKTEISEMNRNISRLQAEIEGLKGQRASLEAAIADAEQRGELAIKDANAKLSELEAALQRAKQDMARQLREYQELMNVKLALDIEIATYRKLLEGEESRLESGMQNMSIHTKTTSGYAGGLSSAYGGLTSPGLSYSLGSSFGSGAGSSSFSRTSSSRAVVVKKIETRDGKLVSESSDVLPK
Description: as §4

[9] = target: T3, CK8/18 mixture (CK8/18 complex) (Homo sapiens, UniProt P05783+P05787); test: as above; format: binding; conditions: mixture of CK8 and CK18
T3 construct: made in house; host or cells: E. coli BL21 (DE3)
T3 sequence (P05787 1-483): T2 sequence (P05787 1-483)
T3 sequence (P05783 1-430): T1 sequence (P05783 1-430)
Description: as §4

CK8 [10] = target: T2, CK8; test: ELISA with recombinant protein as coating antigen; format: binding
CK18 [11] = target: T1, CK18; test: ELISA with recombinant protein as coating antigen; format: binding
CK8/18 complex = target: T4, CK8/18 complex (Homo sapiens, UniProt P05783+P05787); test: ELISA with recombinant protein as coating antigen; format: binding; conditions: mixture of the two proteins as coating antigen
T4 construct: made in house; host or cells: E. coli BL21 (DE3)
T4 sequence (P05787 1-483): T2 sequence (P05787 1-483)
T4 sequence (P05783 1-430): T1 sequence (P05783 1-430)

[12] = test system: HepG2, MCF-7 and HT29 cells; test: Intracellular localization by fluorescence staining and confocal laser microscopy; format: cell-based; conditions: primary antibody 5 μg/ml
Experimental: In order to examine intracellular localization of the TAB-K94 antigen expression, the corresponding cells were cultured on a coverslip, and then intracellular staining was performed, followed by observation using confocal laser microscopy (Zeiss). […] The stained coverslip was treated with a mounting solution containing DAPI, and placed on a slide. […] It was confirmed that the TAB-K94 antibody-specific antigen is a CK8/18 complex, and thus the cells were stained with CK8 and CK18-specific antibodies to compare with the localization of TAB-K94 antibody reaction.

Molecule: ISPDAHS (Ile-Ser-Pro-Asp-Ala-His-Ser) [K94p1]
reactivity against TAB-K94 antibody in ELISA (TAB-K94 antibody): high reactivity

Molecule: TLSHTRT (Thr-Leu-Ser-His-Thr-Arg-Thr) [K94p7]
reactivity against TAB-K94 antibody in ELISA (TAB-K94 antibody): no reactivity

reactivity in Western blotting (CK18 [7]): no reactivity
reactivity in Western blotting (CK8 [8]): no reactivity
reactivity in Western blotting [9]: showed reactivity
reactivity in ELISA (CK8 [10]): not observed
reactivity in ELISA (CK18 [11]): not observed
reactivity in ELISA (CK8/18 complex): the reactivity was observed
B1: TAB-K94 antibody: Monoclonal autoantibody against cytokeratin 8/18 complex from hybridoma KCTC 11799BP; heavy chain SEQ ID NO. 1, light chain SEQ ID NO. 2 (antibody, V domains shown)
VH: XVXLXQSGPGILQPSQTLSLTCSFSGFSLSTFGMGVGWIRQPSGKGLEWLAHIWWDDDKYYNPALKSRLTISKDTSKNQVFLKIANVDTADTATYYCARIGGYYGSSSWYFDVWGTGTTVTVSSESQSFPNVRSS
VL: DIVITQTPSSLSASLGGKVTITCKASQDINKYIAWYQHKPGKGPRLLIHYTSTLQPGIPSRFSGSGSGRDYSFSISNLEPEDIATYYCLQYDNLLTFGGGTKLEIKRADAAPTVS
modifications: not fully specified; a heavy chain variable region; a light chain variable region
reactivity measured by flow cytometry after intracellular staining (Chang liver cells): lower reactivity
reactivity measured by flow cytometry after intracellular staining (HT22 neuronal cells): lower reactivity
reactivity measured by flow cytometry after intracellular staining [1]: High reactivity; also recorded: noticeably increased
reactivity measured by flow cytometry after intracellular staining [2]: High reactivity; also recorded: noticeably increased
staining of tissue by immunohistochemistry [3]: strong complete staining; also recorded: strong staining around cell membrane
staining of tissue by immunohistochemistry [4]: hardly any distinct reaction; also recorded: no distinct reaction
reactivity in Western blotting [5]: very high reactivity
TAB-K94 antibody reaction after siRNA suppression of CK8 or CK18 [6]: reduced
intracellular localization of staining [12]: strongly localized in the cell membrane
